Target: mouse alpha (2) macroglobulin receptor (mouse, UniProt Q91ZX7 20-4545)
Test: cell-based or functional assay

mouse alpha (2) macroglobulin receptor, sequence (Q91ZX7 other isoform, or with tags, fused parts or gaps limits assumed): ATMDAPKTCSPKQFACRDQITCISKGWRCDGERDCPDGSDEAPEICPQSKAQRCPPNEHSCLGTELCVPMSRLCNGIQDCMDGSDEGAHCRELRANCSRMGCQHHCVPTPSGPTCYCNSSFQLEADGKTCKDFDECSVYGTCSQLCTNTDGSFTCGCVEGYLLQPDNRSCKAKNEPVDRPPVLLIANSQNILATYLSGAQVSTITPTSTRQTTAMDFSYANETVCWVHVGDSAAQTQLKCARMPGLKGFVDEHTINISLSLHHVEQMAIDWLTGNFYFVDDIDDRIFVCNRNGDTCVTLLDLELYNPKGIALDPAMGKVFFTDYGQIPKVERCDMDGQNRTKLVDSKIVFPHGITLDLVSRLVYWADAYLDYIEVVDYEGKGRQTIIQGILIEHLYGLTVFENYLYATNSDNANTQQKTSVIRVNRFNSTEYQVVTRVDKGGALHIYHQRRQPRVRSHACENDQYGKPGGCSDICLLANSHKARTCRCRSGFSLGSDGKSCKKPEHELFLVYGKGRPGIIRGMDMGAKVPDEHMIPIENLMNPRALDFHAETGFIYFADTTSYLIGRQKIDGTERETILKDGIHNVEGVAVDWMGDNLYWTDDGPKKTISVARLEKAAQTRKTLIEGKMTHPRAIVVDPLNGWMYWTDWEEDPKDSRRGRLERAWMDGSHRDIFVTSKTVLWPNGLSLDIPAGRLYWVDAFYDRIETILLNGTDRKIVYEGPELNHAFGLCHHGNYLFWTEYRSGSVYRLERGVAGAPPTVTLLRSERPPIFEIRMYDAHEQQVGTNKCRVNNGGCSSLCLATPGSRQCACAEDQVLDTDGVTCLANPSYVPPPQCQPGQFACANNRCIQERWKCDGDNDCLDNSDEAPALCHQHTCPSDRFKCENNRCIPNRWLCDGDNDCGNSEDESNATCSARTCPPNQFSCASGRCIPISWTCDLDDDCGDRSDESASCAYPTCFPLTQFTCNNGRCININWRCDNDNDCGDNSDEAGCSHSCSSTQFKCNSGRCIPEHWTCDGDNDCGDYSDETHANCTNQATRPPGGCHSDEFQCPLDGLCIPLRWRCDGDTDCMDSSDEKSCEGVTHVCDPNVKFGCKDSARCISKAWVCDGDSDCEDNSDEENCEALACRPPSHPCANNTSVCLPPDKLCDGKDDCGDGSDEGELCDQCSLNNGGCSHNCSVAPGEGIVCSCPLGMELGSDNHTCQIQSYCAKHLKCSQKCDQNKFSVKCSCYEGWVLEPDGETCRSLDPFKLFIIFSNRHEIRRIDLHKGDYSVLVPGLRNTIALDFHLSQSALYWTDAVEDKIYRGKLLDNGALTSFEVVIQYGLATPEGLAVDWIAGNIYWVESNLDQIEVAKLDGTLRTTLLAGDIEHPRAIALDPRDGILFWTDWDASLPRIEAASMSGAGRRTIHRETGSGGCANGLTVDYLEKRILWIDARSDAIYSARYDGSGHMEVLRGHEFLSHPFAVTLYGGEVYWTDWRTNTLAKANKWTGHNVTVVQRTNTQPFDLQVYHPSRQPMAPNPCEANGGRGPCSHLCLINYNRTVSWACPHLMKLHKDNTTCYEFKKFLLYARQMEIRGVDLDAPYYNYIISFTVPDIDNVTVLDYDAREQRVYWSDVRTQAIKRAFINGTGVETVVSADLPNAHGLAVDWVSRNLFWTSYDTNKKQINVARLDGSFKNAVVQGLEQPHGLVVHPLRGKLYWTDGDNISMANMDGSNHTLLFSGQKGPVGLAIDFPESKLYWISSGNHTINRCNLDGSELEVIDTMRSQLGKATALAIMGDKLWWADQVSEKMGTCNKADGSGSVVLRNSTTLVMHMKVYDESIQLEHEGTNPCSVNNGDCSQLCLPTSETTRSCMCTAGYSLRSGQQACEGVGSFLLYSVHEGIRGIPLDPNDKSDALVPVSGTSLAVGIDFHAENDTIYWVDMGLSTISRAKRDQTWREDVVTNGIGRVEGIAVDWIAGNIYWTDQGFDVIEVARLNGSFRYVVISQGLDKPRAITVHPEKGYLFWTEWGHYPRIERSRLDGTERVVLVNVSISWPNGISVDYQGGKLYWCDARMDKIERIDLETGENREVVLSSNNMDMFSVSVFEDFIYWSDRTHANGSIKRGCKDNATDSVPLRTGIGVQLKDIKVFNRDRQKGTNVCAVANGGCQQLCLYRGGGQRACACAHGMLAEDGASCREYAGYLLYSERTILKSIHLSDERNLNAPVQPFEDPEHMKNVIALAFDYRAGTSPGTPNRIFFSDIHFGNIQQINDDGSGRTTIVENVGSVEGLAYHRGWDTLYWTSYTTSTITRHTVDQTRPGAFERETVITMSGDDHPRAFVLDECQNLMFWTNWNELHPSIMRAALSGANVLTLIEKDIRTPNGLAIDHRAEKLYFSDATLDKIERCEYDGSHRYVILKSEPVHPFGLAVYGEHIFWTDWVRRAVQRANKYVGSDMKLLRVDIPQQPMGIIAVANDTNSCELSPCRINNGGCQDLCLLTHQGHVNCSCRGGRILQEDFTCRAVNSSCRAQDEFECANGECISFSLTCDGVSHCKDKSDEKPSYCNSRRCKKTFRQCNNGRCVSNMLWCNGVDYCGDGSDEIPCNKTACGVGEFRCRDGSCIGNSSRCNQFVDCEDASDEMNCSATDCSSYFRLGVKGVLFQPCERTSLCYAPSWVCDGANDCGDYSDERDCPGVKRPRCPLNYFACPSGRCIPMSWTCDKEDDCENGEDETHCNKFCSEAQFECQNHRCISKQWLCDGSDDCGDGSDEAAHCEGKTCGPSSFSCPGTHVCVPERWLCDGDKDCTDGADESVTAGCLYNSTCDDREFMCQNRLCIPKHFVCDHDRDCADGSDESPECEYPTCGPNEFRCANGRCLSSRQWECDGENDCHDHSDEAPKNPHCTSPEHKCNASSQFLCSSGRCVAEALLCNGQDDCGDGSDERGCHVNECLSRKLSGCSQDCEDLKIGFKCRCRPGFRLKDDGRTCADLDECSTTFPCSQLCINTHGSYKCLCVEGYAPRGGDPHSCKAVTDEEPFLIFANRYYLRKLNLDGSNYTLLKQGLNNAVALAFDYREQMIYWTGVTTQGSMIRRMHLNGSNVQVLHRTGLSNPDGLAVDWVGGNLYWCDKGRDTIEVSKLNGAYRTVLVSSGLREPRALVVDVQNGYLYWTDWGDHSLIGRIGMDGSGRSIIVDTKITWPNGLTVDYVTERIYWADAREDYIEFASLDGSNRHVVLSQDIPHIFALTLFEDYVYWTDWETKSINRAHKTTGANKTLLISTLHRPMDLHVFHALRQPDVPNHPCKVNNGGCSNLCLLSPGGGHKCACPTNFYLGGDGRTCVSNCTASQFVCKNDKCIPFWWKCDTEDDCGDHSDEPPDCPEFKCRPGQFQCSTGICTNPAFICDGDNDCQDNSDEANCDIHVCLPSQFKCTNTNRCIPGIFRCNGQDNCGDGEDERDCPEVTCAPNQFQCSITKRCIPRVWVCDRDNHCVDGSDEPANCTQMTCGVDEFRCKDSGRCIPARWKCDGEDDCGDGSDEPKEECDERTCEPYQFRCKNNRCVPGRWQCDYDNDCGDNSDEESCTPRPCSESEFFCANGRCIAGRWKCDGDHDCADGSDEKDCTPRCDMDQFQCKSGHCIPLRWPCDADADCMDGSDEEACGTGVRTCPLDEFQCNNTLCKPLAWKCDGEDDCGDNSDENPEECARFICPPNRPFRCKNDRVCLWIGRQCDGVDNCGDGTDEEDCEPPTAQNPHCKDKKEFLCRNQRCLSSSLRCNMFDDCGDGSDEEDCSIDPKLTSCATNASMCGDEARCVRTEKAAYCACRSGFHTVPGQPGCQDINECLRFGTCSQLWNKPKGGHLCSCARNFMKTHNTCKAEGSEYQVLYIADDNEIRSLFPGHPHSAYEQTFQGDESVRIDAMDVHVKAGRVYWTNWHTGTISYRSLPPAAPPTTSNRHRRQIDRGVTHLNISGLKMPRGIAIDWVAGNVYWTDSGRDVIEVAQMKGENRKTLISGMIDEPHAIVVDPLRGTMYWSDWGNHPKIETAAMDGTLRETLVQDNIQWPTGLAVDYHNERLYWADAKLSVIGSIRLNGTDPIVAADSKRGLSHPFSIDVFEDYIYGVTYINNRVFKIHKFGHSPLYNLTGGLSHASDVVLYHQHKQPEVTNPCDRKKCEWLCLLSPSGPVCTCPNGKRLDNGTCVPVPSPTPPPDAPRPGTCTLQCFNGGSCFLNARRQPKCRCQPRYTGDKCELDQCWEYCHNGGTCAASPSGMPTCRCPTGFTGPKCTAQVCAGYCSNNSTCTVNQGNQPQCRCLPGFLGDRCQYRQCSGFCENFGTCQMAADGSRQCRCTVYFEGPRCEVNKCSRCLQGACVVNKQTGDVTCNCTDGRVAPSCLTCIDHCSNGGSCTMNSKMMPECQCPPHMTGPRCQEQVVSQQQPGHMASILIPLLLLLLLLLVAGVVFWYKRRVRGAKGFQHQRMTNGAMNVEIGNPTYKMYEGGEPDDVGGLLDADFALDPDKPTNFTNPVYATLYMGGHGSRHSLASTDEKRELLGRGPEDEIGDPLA

| molar excess of free HSP required to inhibit by 50% the re-presentation of gp96-chaperoned peptides at a gp96 concentration of 40 µg/ml (RAW264.7 cells) (fold molar excess) | molar excess of free HSP required to inhibit by 50% the re-presentation of gp96-chaperoned peptides at a gp96 concentration of 40 µg/ml (RAW264.7 cells) | Molecule |
| --- | --- | --- |
| 2 |  | heat shock protein hsp90 (ligand) |
| 13 |  | heat shock protein hsp70 (ligand) |
|  | ~6 fold molar excess | heat shock protein gp96 (ligand, UniProt P08113 22-802, looked up) DDEVDVDGTVEEDLGKSREGSRTDDEVVQREEEAIQLDGLNASQIRELREKSEKFAFQAEVNRMMKLIINSLYKNKEIFLRELISNASDALDKIRLISLTDENALAGNEELTVKIKCDKEKNLLHVTDTGVGMTREELVKNLGTIAKSGTSEFLNKMTEAQEDGQSTSELIGQFGVGFYSAFLVADKVIVTSKHNNDTQHIWESDSNEFSVIADPRGNTLGRGTTITLVLKEEASDYLELDTIKNLVRKYSQFINFPIYVWSSKTETVEEPLEEDEAAKEEKEESDDEAAVEEEEEEKKPKTKKVEKTVWDWELMNDIKPIWQRPSKEVEEDEYKAFYKSFSKESDDPMAYIHFTAEGEVTFKSILFVPTSAPRGLFDEYGSKKSDYIKLYVRRVFITDDFHDMMPKYLNFVKGVVDSDDLPLNVSRETLQQHKLLKVIRKKLVRKTLDMIKKIADEKYNDTFWKEFGTNIKLGVIEDHSNRTRLAKLLRFQSSHHSTDITSLDQYVERMKEKQDKIYFMAGSSRKEAESSPFVERLLKKGYEVIYLTEPVDEYCIQALPEFDGKRFQNVAKEGVKFDESEKTKESREATEKEFEPLLNWMKDKALKDKIEKAVVSQRLTESPCALVASQYGWSGNMERIMKAQAYQTGKDISTNYYASQKKTFEINPRHPLIRDMLRRIKEDEDDKTVMDLAVVLFETATLRSGYLLPDTKAYGDRIERMLRLSLNIDPEAQVEEEPEEEPEDTSEDAEDSEQDEGEEMDAGTEEEEEETEKESTEKDEL |

Reference: patent publication US20040072993A1 (UNIVERSITY OF CONNECTICUT HEALTH CENTER, published 2004)
